In patent US20050065080A1, “Use of leptin in fertility” (priority 2001, published 2005):

Tests used:
LH = assay: Serum LH radioimmunoassay in antide-treated mice; format: in vivo, mouse
Protocol: Leptin induces the GnRH release from the Hypothalamus, which in turn releases FSH and LH from the Pituitary glands (Yu et al. 1997). To test if the follicle development and ovulation induced in the antide-treated C57BL mice and ob/ob mice by leptin is mediated by LH release, serum LH as well as progesterone, which is an LH-induced marker was measured. Measurement of plasma murine LH (mLH) and progesterone were carried out with specific radioimmunoassays. Progesterone was determined in mouse sera by RIA (Kohen 1975). LH was determined in mouse by a specific RIA, obtained trough the National Hormone & Pituitary Program, harbor-UCLA Medical Center (Torrance, California). The levels of mLH were below 0.2 ng/ml in all cases (Table 2). The levels of LH remained low throughout the follicular growth and ovulation in leptin-treated mice. However, it is difficult to detect the LH surge even in positive controls. Therefore, measurement of the LH-induced serum progesterone serve as a more reliable marker of circulating LH.

C57BL/6 mice = assay: Ovulation induction in antide-treated prepubertal C57BL/6 mice (oocyte count); format: in vivo, mouse; conditions: for Oocyte count in C57BL/6 mice: antide-treated, PMSG at 0 h, leptin or hCG at 48 h, oocytes counted at 72 h, range
Protocol: (§1) In the present example, ovulation was studied in ob/ob mice and in prepubertal C57BL/6 mice. All mice were treated with antide to prevent induction of LH by leptin. […] Following the various treatments, mice were sacrificed and oocytes were collected from the ampoule at 72 hours from the first injection and counted.
(§2) Similarly a group of ob/ob mice were injected with PMSG (3 IU/animal) and after 48 h with leptin (2×5 μg/g weight). […] Ovulation was monitored by counting oocytes in the oviducts under the microscope.

ob/ob mice [1] = assay: Follicular development in antide-treated ob/ob mice (hematoxylin-eosin ovarian sections); format: in vivo, mouse; conditions: for follicular growth in ovarian sections: single agent
Protocol: The effect of leptin in follicular development was studied in ob/ob mice that were treated with the GnRH antagonist antide (Phillips et al. 1988). It is therefore expected that following administration of leptin to antide treated mice, as opposed to non-treated mice, release of LH or FSH from the pituitary gland will not occur.
8-10 week-old obese C57B1-ob/ob female mice were all injected (time 0) with antide (1.25 μg/g body weight). Mice were divided into several groups. A control group was injected with saline only. A second group was injected with murine leptin (ip,2×5 μg/g body weight purchased from R&D systems) at times 0 and 9 h. A third group was injected with pregnant mare serum gonadotropins (PMSG, 3 IU/mice, sc). A fourth group received a combination of both PMSG and leptin. Mice were sacrificed at 9, 24, and 48 and 72 h following the first treatment, the ovaries were excised, paraffin-fixed and stained with hematoxylin-eosin to visualize follicular and ovarian growth.

uterus = assay: Appearance of the uterus in treated mice; format: in vivo, mouse; conditions: for uterus distension and hyperemia: after PMSG, or PMSG followed by hCG or leptin, leptin: ob/ob mice that ovulated
ob/ob mice [2] = assay: Ovulation induction in antide-treated ob/ob mice (oocyte count); format: in vivo, mouse; conditions: for Oocyte count in ob/ob mice: antide-treated, PMSG at 0 h, leptin or hCG at 48 h, oocytes counted at 72 h, range
Protocol: as §1, §2

ADAMTS-1 = ADAMTS-1 expression in cultured pre-ovulatory follicles (quantitative RT-PCR); format: cell-based, mouse; conditions: 17 h; leptin 250 ng/ml or hCG 1 IU; normalized to ribosomal protein L19; FIG. 2
Protocol: Pre-ovulatory follicles were removed, cultured and further treated for 17 h in the absence or presence of either leptin (250 ng/ml) or hCG (1 IU). Total RNA was isolated from the follicles and subjected to quantitative RT-PCR using the LightCycler™ (Roche diagnostics). The primers used for the detection of murine ADAMTS-1 transcripts were:

progesterone = assay: Serum progesterone radioimmunoassay in ob/ob and C57BL/6 mice; format: in vivo, mouse; conditions: PMSG at time 0, agent at 48 h, RIA at 72 h; FIG. 1
Protocol: Mice were treated with PMSG at time 0 and the indicated agent at 48 h. Progesterone was determined by RIA at 72 h in sera of C57BL/6 mice (grey bars) and of ob/ob mice (open bars).

Cathepsin L = Cathepsin L expression in cultured pre-ovulatory follicles (quantitative RT-PCR); format: cell-based, mouse; conditions: 17 h; not statistically significant
Text: Total RNA was isolated from the follicles and subjected to quantitative RT-PCR with specific primers for two proteases, ADAMTS-1 and Cathepsin L. The PCR products were resolved in agarose gel electrophoresis and scanned. The RNAs levels of ADAMTS-1 were normalized to the RNAs levels of ribosomal protein
To test whether leptin can induce the expression of ADAMTS-1 and cathepsin L by acting directly on the ovary, in vitro experiments were preformed on pre-ovulatory follicles obtained from 21 days old C57BL/6 mice treated with PMSG (3 IU/animal) for 48 h. […] Total RNA was isolated from the follicles and subjected to quantitative RT-PCR using the LightCycler™ (Roche diagnostics). The primers used for the detection of murine ADAMTS-1 transcripts were: […]
The RNAs levels of ADAMTS-1 and cathepsin L detected in agarose gel electrophoresis of the PCR products were normalized to the RNAs levels of murine ribosomal protein L19

[3] = antide + PMSG (48 h) then leptin or hCG (24 h)

antide [reference compound]
Serum LH (LH; antide-treated mice, 72 h): 0.04 ± 0.01 ng/mL
Oocyte count in C57BL/6 mice (C57BL/6 mice): 0
follicular growth in ovarian sections (ob/ob mice [1]; antide-treated ob/ob mice): only early stages of follicular growth

pregnant mare serum gonadotropins [PMSG, reference compound]
Serum LH (LH; antide + PMSG, 60 h): 0.2 ng/mL
Serum LH (LH; antide-treated mice, 72 h): 0.09 ± 0.01 ng/mL
Oocyte count in C57BL/6 mice (C57BL/6 mice): 0
follicular growth in ovarian sections (ob/ob mice [1]; antide-treated ob/ob mice): large antral follicles were formed at 72 h
uterus distension and hyperemia (uterus): maximal distension
Oocyte count in ob/ob mice (ob/ob mice [2]): 0 oocytes per mouse

B1: leptin (protein, UniProt P41160 22-167, looked up)
Leptin: VPIQKVQDDTKTLIKTIVTRINDISHTQSVSAKQRVTGLDFIPGLHPILSLSKMDQTLAVYQQVLTSLPSQNVLQIANDLENLRDLLHLLAFSKSCSLPQTSGLQKPESLDGVLEASLYSTEVVALSRLQGSLQDILQQLDVSPEC
notes: murine leptin purchased from R&D systems; adipocyte-secreted protein encoded by the obese (ob) gene
induction of ADAMTS-1 RNA (ADAMTS-1): significant induction
Serum LH (LH; antide + PMSG 48 h then leptin 12 h): 0.17 ± 0 ng/mL
Serum LH (LH; antide + PMSG 48 h then leptin 24 h): 0.057 ± 0.01 ng/mL
Serum LH (LH; antide + leptin, 9 h): 0.05 ng/mL
Serum LH (LH; antide + leptin, 24 h): 0.06 ± 0.01 ng/mL
Serum LH (LH; antide + leptin, 48 h): 0.07 ± 0.04 ng/mL
Serum LH (LH; antide-treated mice, 72 h): 0.04 ± 0.01 ng/mL
mice ovulated, C57BL/6 mice (C57BL/6 mice; [3]): 7 out of 7 mice
Oocyte count in C57BL/6 mice (C57BL/6 mice): (2-7)
ovarian growth (ob/ob mice [1]; antide-treated ob/ob mice, concomitant PMSG and leptin, after 72 h): an interstitial cell growth and further ovarian growth were observed
time at which large follicles could be observed after initiation of treatment (ob/ob mice [1]; antide-treated ob/ob mice, as early as): 9 h
follicular growth in ovarian sections (ob/ob mice [1]; antide-treated ob/ob mice): induced rapid follicular growth
corpora lutea in the ovaries (ob/ob mice [1]; ob/ob mice, PMSG at time 0 and leptin instead of hCG at 48 h, seen at 72 h): corpora lutea were also seen
uterus distension and hyperemia (uterus): remained hyperemic, exhibiting maximal distension
uterine features (uterus; antide-treated C57BL/6 mice): same uterine features, were also observed
uterus hyperemia (uterus; leptin in the absence of PMSG): rendered the uterus hyperemic
serum progesterone (progesterone): lack of significant progesterone synthesis
ovulation (oocytes in the oviducts) (ob/ob mice [2]; PMSG then agent at 48 h, summary of Table 1): ovulation was observed
mice ovulated, ob/ob mice (ob/ob mice [2]; [3]): 3 out of 5 mice ovulated
Oocyte count in ob/ob mice (ob/ob mice [2]): (range 1-6 oocytes per oocytes per mouse
induction of Cathepsin L RNA (Cathepsin L): Marginal induction
